Target: FLAG-HA-PTEN (UniProt P60484)
Sequence (P60484 whole entry): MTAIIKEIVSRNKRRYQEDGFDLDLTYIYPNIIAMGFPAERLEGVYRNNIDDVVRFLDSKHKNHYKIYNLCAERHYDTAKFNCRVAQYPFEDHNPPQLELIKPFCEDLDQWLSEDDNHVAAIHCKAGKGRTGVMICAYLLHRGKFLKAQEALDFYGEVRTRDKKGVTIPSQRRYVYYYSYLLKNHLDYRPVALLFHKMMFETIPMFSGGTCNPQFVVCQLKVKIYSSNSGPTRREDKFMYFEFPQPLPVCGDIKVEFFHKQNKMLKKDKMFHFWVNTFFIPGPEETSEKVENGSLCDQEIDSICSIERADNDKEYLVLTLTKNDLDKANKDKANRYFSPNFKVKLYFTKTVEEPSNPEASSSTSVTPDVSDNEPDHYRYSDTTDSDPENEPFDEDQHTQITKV

Substance: c-src
- tyrosine phosphorylation of PTEN (Western blot with 4G10 and anti-pY240, FIG. 15): although src and lyn both phosphorylate PTEN on tyrosine, the phosphorylation of Y240 is much greater in the presence of lyn than when src is expressed with PTEN
- tyrosine phosphorylation sites on PTEN identified by mass spectrometry: We identified four sites of tyrosine phosphorylation in the PTEN phosphatase domain (Y46, Y68, Y155 and Y174) and two sites in the PTEN C2 domain (Y240 and Y315)
